The values that follow come from patent US20200299730A1.

Common to all, as to assay: cell-based or functional assay
Test [1] concerns the target MART-1 peptide pulsed on HLA-A02 expressing K562 target cells (human).
For test [2], the target named is MART1 peptide-HLA (pHLA) single polypeptide chain (antigenic peptide, β2-microglobulin, HLA-A2 domains) constitutively expressed on K562 target cells (human).
For test [3], the target named is MART-1 peptide pulsed on K562 target cells expressing the non-cognate MHC HLA-A01 (human).

In test [1], “MART-1 neoTCR (F5) encoded by HR template NTC9385R-TRAC(1k)DTS_P2A.F5.TRBopt.f-P2A.TRA(Va)opt (SEQ ID NO: 10), on edited primary human T cells” gave a single-cell secretome (Isoplexis), CD8+ T cells producing more than one cytokine of less than 40%.
In the case of “MART-1 (F5) TCR expressed by lentiviral transduction (pCCLc-MND-F5TCR-Myc271), on human CD3+ T cells (TCR; unit assumed)”, the Cytotoxic Killing in test [2] stood at 39.4%; in test [3], 8.5%; in test [1], 38.1%.
The corresponding values for “NY-ESO (1G4) TCR expressed by lentiviral transduction (pCCLc-MND-1G4TCR-Myc271), on human CD3+ T cells (TCR; unit assumed)” are 8.4%, 8.3% and 8.7%.
For “MART-1 neoTCR (F5) encoded by HR template NTC9385R-TRAC(1k)DTS_P2A.F5.TRBopt.f-P2A.TRAopt.BGHpA (SEQ ID NO: 9), on edited primary human T cells (TCR; unit assumed)”, in that order: 34.5%, 10.6% and 25.6%.
